Reference: patent US20240261333A1, “NOVEL TARGETS FOR ENHANCING ANTI-TUMOR IMMUNITY” (THE BROAD INSTITUTE, INC., priority 2021, published 2024)

T1: B3GNT2 (Homo sapiens, UniProt Q9NY97)
T1 construct: The respective ORFs of candidate genes [CD274 (NM_014143), MCL1 (NM_021960), JUNB (NM_002229), and B3GNT2 (NM_006577)] were synthesized; expressed in transfected cells; host or cells: A375 melanoma cells (lentiviral ORF overexpression)
T1 sequence (Q9NY97 1-397): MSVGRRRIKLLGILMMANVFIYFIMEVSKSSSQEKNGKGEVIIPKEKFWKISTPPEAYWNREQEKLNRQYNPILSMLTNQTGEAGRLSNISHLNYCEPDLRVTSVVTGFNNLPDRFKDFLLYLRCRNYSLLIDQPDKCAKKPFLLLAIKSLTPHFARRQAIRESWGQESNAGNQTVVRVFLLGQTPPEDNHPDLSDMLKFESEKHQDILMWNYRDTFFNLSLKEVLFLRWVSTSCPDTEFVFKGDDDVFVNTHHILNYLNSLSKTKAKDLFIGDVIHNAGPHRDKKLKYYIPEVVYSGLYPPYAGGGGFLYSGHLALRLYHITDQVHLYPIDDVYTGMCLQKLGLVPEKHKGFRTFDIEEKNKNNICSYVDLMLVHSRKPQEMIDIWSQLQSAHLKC


Target: T1, B3GNT2
Assay: Co-IP of FLAG-tagged B3GNT2 followed by mass spectrometry
Format: cell-based
Parameters: C-term IgG / C-term flag: unit not given here
Conditions: mass spectrometry count, unit not given; for C-term flag / N-term FLAG: Co-IP with FLAG antibody; for C-term flag / C-term IgG: C-terminally FLAG-tagged B3GNT2; for N-term FLAG / N-term IgG: N-terminally FLAG-tagged B3GNT2; for C-term IgG / N-term IgG: Co-IP with IgG control antibody
Outline: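 Co-purifying proteins were identified by fractionated nano-LC–MS/MS on an Orbitrap Elite, run data-dependent. Beforehand, lysates in 1% Triton X-100/HEPES buffer were incubated overnight at 4° C with anti-FLAG or […] and pulled down on Protein A/G magnetic beads for 4 h. Duplicate biological replicates.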

Row | Molecule | C-term flag | N-term FLAG | C-term IgG | N-term IgG
1 | CTHRC1 (protein) MWPPGRSITVKLREKTVSRKLEMNGPSAFQGLICGKYNGMCLQGPAGVPGRDGSPGANGIPGTPGIPGRDGFKGEKGECLRESFEESWTPNYKQCSWSSLNYGIDLGKIAECTFTKMRSNSALRVLFSGSLRLKCRNACCQRWYFTFNGAECSGPLPIEAIIYLDQGSPEMNSTINIHRTSSVEGLCEGIGAGLVDVAIWVGTCSDYPKGDASTGWNSVSRIIIEELPK | 2 | 0 | 0 | 0
2 | RRP12 (protein) MGRSGKLPSGVSAKLKRWKKGHSSDSNPAICRHRQAARSRFFSRPSGRSDLTVDAVKLHNELQSGSLRLGKSEAPETPMEEEAELVLTEKSSGTFLSGLSDCTNVTFSKVQRFWESNSAAHKEICAVLAAVTEVIRSQGGKETETEYFAALVLSCLATLLRKQDLEAWGYPVTLQVYHGLLSFTVHPKPKIRKAAQHGVCSVLKGSEFMFEKAPAHHPAAISTAKFCIQEIEKSGGSKEATTTLHMLTLLKDLLPCFPEGLVKSCSETLLRVMTLSHVLVTACAMQAFHSLFHARPGLSTLSAELNAQIITALYDYVPSENDLQPLLAWLKVMEKAHINLVRLQWDLGLGHLPRFFGTAVTCLLSPHSQVLTAATQSLKEILKECVAPHMADIGSVTSSASGPAQSVAKMFRAVEEGLTYKFHAAWSSVLQLLCVFFEACGRQAHPVMRKCLQSLCDLRLSPHFPHTAALDQAVGAAVTSMGPEVVLQAVPLEIDGSEETLDFPRSWLLPVIRDHVQETRLGFFTTYFLPLANTLKSKAMDLAQAGSTVESKIYDTLQWQMWTLLPGFCTRPTDVAISFKGLARTLGMAISERPDLRVTVCQALRTLITKGCQAEADRAEVSRFAKNFLPILFNLYGQPVAAGDTPAPRRAVLETIRTYLTITDTQLVNSLLEKASEKVLDPASSDFTRLSVLDLVVALAPCADEAAISKLYSTIRPYLESKAHGVQKKAYRVLEEVCASPQGPGALFVQSHLEDLKKTLLDSLRSTSSPAKRPRLKCLLHIVRKLSAEHKEFITALIPEVILCTKEVSVGARKNAFALLVEMGHAFLRFGSNQEEALQCYLVLIYPGLVGAVTMVSCSILALTHLLFEFKGLMGTSTVEQLLENVCLLLASRTRDVVKSALGFIKVAVTVMDVAHLAKHVQLVMEAIGKLSDDMRRHFRMKLRNLFTKFIRKFGFELVKRLLPEEYHRVLVNIRKAEARAKRHRALSQAAVEEEEEEEEEEEPAQGKGDSIEEILADSEDEEDNEEEERSRGKEQRKLARQRSRAWLKEGGGDEPLNFLDPKVAQRVLATQPGPGRGRKKDHGFKVSADGRLIIREEADGNKMEEEEGAKGEDEEMADPMEDVIIRNKKHQKLKHQKEAEEEELEIPPQYQAGGSGIHRPVAKKAMPGAEYKAKKAKGDVKKKGRPDPYAYIPLNRSKLNRRKKMKLQGQFKGLVKAARRGSQVGHKNRRKDRRP | 2 | 0 | 0 | 0
3 | PJA2 (protein) SQYTEKEPAAMDQESGKAVWPKPAGGYQTITGRRYGRRHAYVSFKPCMTRHERSLGRAGDDYEVLELDDVPKENSSGSSPLDQVDSSLPSEPIFEKSETEIPTCGSALNQTTESSQSFVAVHHSEEGRDTLGSSTNLHNHSEGEYIPGACSASSVQNGIALVHTDSYDPDGKHGEDNDHLQLSAEVVEGSRYQESLGNTVFELENREAEAYTGLSPPVPSFNCEVRDEFEELDSVPLVKSSAGDTEFVHQNSQEIQRSSQDEMVSTKQQNNTSQERQTEHSPEDAACGPGHICSEQNTNDREKNHGSSPEQVVRPKVRKLISSSQVDQETGFNRHEAKQRSVQRWREALEVEESGSDDLLIKCEEYDGEHDCMFLDPPYSRVITQRETENNQMTSESGATAGRQEVDNTFWNGCGDYYQLYDKDEDSSECSDGEWSASLPHRFSGTEKDQSSSDESWETLPGKDENEPELQSDSSGPEEENQELSLQEGEQTSLEEGEIPWLQYNEVNESSSDEGNEPANEFAQPAFMLDGNNNLEDDSSVSEDLDVDWSLFDGFADGLGVAEAISYVDPQFLTYMALEERLAQAMETALAHLESLAVDVEVANPPASKESIDGLPETLVLEDHTAIGQEQCCPICCSEYIKDDIATELPCHHFFHKPCVSIWLQKSGTCPVCRRHFPPAVIEASAAPSSEPDPDAPPSNDSIAEAP | 2 | 0 | 0 | 0
4 | CSRP1 (protein) MPNWGGGKKCGVCQKTVYFAEEVQCEGNSFHKSCFLCMVCKKNLDSTTVAVHGEEIYCKSCYGKKYGPKGYGYGQGAGTLSTDKGESLGIKHEEAPGHRPTTNPNASKFAQKIGGSERCPRCSQAVYAAEKVIGAGKSWHKACFRCAKCGKGLESTTLADKDGEIYCKGCYAKNFGPKGFGFGQGAGALVHSE | 3 | 0 | 0 | 0
5 | CCT2 (protein) MDKILLSSGRDASLMVTNDGATILKNIGVDNPAAKVLVDMSRVQDDEVGDGTTSVTVLAAELLREAESLIAKKIHPQTIIAGWREATKAAREALLSSAVDHGSDEVKFRQDLMNIAGTTLSSKLLTHHKDHFTKLAVEAVLRLKGSGNLEAIHIIKKLGGSLADSYLDEGFLLDKKIGVNQPKRIENAKILIANTGMDTDKIKIFGSRVRVDSTAKVAEIEHAEKEKMKEKVERILKHGINCFINRQLIYNYPEQLFGAAGVMAIEHADFAGVERLALVTGGEIASTFDHPELVKLGSCKLIEEVMIGEDKLIHFSGVALGEACTIVLRGATQQILDEAERSLHDALCVLAQTVKDSRTVYGGGCSEMLMAHAVTQLANRTPGKEAVAMESYAKALRMLPTIIADNAGYDSADLVAQLRAAHSEGNTTAGLDMREGTIGDMAILGITESFQVKRQVLLSAAEAAEVILRVDNIIKAAPRKRVPDHHPC | 2 | 0 | 0 | 0
6 | ARF4 (protein) GLTISSLFSRLFGKKQMRILMVGLDAAGKTTILYKLKLGEIVTTIPTIGFNVETVEYKNICFTVWDVGGQDRIRPLWKHYFQNTQGLIFVVDSNDRERIQEVADELQKMLLVDELRDAVLLLFANKQDLPNAMAISEMTDKLGLQSLRNRTWYVQATCATQGTGLYEGLDWLSNELSKR | 4 | 4 | 0 | 0
7 | GANAB (protein) ITLAVDRSNFKTCEESSFCKRQRSIRPGLSPYRALLDSLQLGPDSLTVHLIHEVTKVLLVLELQGLQKNMTRFRIDELEPRRPRYRVPDVLVADPPIARLSVSGRDENSVELTMAEGPYKIILTARPFRLDLLEDRSLLLSVNARGLLEFEHQRAPRVSQGSKDPAEGDGAQPEETPRDGDKPEETQGKAEKDEPGAWEETFKTHSDSKPYGPMSVGLDFSLPGMEHVYGIPEHADNLRLKVTEGGEPYRLYNLDVFQYELYNPMALYGSVPVLLAHNPHRDLGIFWLNAAETWVDISSNTAGKTLFGKMMDYLQGSGETPQTDVRWMSETGIIDVFLLLGPSISDVFRQYASLTGTQALPPLFSLGYHQSRWNYRDEADVLEVDQGFDDHNLPCDVIWLDIEHADGKRYFTWDPSRFPQPRTMLERLASKRRKLVAIVDPHIKVDSGYRVHEELRNLGLYVKTRDGSDYEGWCWPGSAGYPDFTNPTMRAWWANMFSYDNYEGSAPNLFVWNDMNEPSVFNGPEVTMLKDAQHYGGWEHRDVHNIYGLYVHMATADGLRQRSGGMERPFVLARAFFAGSQRFGAVWTGDNTAEWDHLKISIPMCLSLGLVGLSFCGADVGGFFKNPEPELLVRWYQMGAYQPFFRAHAHLDTGRREPWLLPSQHNDIIRDALGQRYSLLPFWYTLLYQAHREGIPVMRPLWVQYPQDVTTFNIDDQYLLGDALLVHPVSDSGAHGVQVYLPGQGEVWYDIQSYQKHHGPQTLYLPVTLSSIPVFQRGGTIVPRWMRVRRSSECMKDDPITLFVALSPQGTAQGELFLDDGHTFNYQTRQEFLLRRFSFSGNTLVSSSADPEGHFETPIWIERVVIIGAGKPAAVVLQTKGSPESRLSFQHDPETSVLVLRKPGINVASDWSIHLR | 8 | 0 | 0 | 0
